Data as given in the Immune Epitope Database (IEDB).

What was measured:
HLA-A*68:02 = assay: IEDB peptide-MHC binding, purified MHC/competitive/radioactivity; filed as Kd, often an IC50 or EC50 that approximates it; ≥ and ≤ were set here for values at or beyond the usual limits of such assays
HLA-B*51:01 [1] = assay: as above
HLA-A*26:01 [2] = assay: as above
HLA-A*02:01 [3] = assay: as above
HLA-A*02:03 = assay: as above
HLA-A*02:02 = assay: as above
HLA-A*02:06 = assay: as above
HLA-A*01:01 = assay: as above; conditions: source organism: Dengue virus 2 Jamaica/1409/1983
HLA-A*24:02 = assay: as above
HLA-A*23:01 = assay: as above
HLA-A*33:01 = assay: as above; conditions: source organism: Vaccinia virus WR
HLA-A*31:01 = assay: as above; conditions: source organism: Vaccinia virus WR
HLA-B*54:01 = assay: as above; conditions: source organism: Vaccinia virus WR
HLA-A*03:01 [4] = assay: as above; conditions: source organism: Vaccinia virus WR
HLA-A*11:01 = assay: as above; conditions: source organism: Vaccinia virus WR
HLA-B*35:01 = assay: as above; conditions: source organism: Vaccinia virus WR
HLA-B*07:02 = assay: as above; conditions: source organism: Vaccinia virus WR
HLA-A*68:01 = assay: as above; conditions: source organism: Vaccinia virus WR
HLA-B*53:01 = assay: as above; conditions: source organism: Vaccinia virus WR
HLA-B*08:01 = assay: as above
HLA-B*44:03 = assay: as above; conditions: source organism: Dengue virus 1 Brazil/97-11/1997
HLA-A*02:01 [5] = assay: IEDB peptide-MHC binding, purified MHC/direct/fluorescence; filed as Kd, often an IC50 or EC50 that approximates it; ≥ and ≤ were set here for values at or beyond the usual limits of such assays; conditions: source organism: Juquitiba virus
HLA-A*03:01 [6] = assay: as above; conditions: source organism: Araucaria virus
HLA-B*57:01 = assay: IEDB peptide-MHC binding, purified MHC/competitive/fluorescence; filed as Kd, often an IC50 or EC50 that approximates it; ≥ and ≤ were set here for values at or beyond the usual limits of such assays; conditions: source organism: Hantavirus HPR/02-73
HLA-B*51:01 [7] = assay: as above; conditions: source organism: Hantavirus HPR/02-73
HLA-B*27:03 = assay: as above; conditions: source organism: Hantavirus HPR/02-73
HLA-B*18:01 = assay: as above; conditions: source organism: Hantavirus HPR/02-73
HLA-A*26:01 [8] = assay: as above; conditions: source organism: Hantavirus HPR/02-73
[9] = source organism: Dengue virus 4 Philippines/H241/1956
[10] = source organism: Trypanosoma cruzi
[11] = source organism: Lassa virus Josiah
[12] = source organism: Dengue virus 3 Martinique/1243/1999
[13] = source organism: Dengue virus 2 Jamaica/1409/1983
[14] = source organism: Dengue virus 1 Brazil/97-11/1997
[15] = source organism: Vaccinia virus WR

With LTFIRSTMPL the Kd (HLA-A*68:02; [9]) was 19.8 nM, the Kd (HLA-B*51:01 [1]; [9]) was 1520 nM and the Kd (HLA-A*26:01 [2]; [9]) was 7410 nM.
LVGLLSNAAS gave a Kd (HLA-A*02:01 [3]; [10]) of 11200 nM, a Kd (HLA-A*02:03; [10]) of 395 nM and a Kd (HLA-A*02:02; [10]) of 1720 nM. The Kd (HLA-A*68:02; [10]) was 4310 nM and the Kd (HLA-A*02:06; [10]) was 1330 nM.
For LVGLVTFLL, the Kd (HLA-A*02:01 [3]; [11]) was 641 nM.
MSFSCIAIGI showed a Kd (HLA-A*68:02; [12]) of 5.17 nM.
For MTTEDMLAV, the Kd (HLA-A*68:02; [13]) was 10.8 nM, the Kd (HLA-A*02:06; [13]) was 7.01 nM and the Kd (HLA-A*01:01) was 2700 nM. For the same sequence, the Kd (HLA-A*26:01 [2]; [13]) was 623 nM.
MVTHFDNTQV gave a Kd (HLA-A*68:02; [9]) of 9.99 nM.
For MWHVTRGSVI, the Kd (HLA-A*24:02; [9]) was 1280 nM and the Kd (HLA-A*23:01; [9]) was 1080 nM.
PYMPTVIEEL was tested, and the Kd (HLA-A*24:02; [9]) was 211 nM.
With QLQVTEREEV the Kd (HLA-A*68:02; source organism: Homo sapiens) was ≥ 60000 nM.
For QYVYMGQPL, the Kd (HLA-A*24:02; [14]) was 4520 nM.
In the case of RLTQSHPIL, the Kd (HLA-A*02:01 [3]; [11]) is reported as 1670 nM.
For RPDTRHLRVL, the Kd (HLA-A*33:01) was ≥ 70000 nM, the Kd (HLA-A*31:01) was ≥ 70000 nM and the Kd (HLA-A*02:01 [3]; [15]) was ≥ 69400 nM. The Kd (HLA-A*02:03; [15]) was ≥ 70400 nM, the Kd (HLA-B*54:01) was ≥ 69900 nM and the Kd (HLA-A*02:02; [15]) was ≥ 70000 nM. For the same sequence, the Kd (HLA-A*03:01 [4]) was ≥ 70100 nM, the Kd (HLA-A*11:01) was ≥ 69800 nM and the Kd (HLA-A*68:02; [15]) was ≥ 69800 nM. For the same sequence, the Kd (HLA-B*35:01) was ≥ 69900 nM, the Kd (HLA-B*07:02) was 11.7 nM and the Kd (HLA-A*68:01) was ≥ 70200 nM. The Kd (HLA-B*53:01) was ≥ 69900 nM, the Kd (HLA-B*51:01 [1]; [15]) was ≥ 69600 nM and the Kd (HLA-A*02:06; [15]) was ≥ 69800 nM.
For RTVFFVLMML, the Kd (HLA-A*68:02; [9]) was 17.9 nM.
For SAKQLRTRI, the Kd (HLA-B*08:01; [15]) was 201 nM.
SASSMINGV showed a Kd (HLA-A*68:02; [12]) of 28.9 nM.
With SFIEVKSCHW the Kd (HLA-A*23:01; [13]) was 461 nM.
SFIEVKTCIW was tested, and the Kd (HLA-B*44:03) was 1260 nM and the Kd (HLA-A*23:01; [14]) was 17.3 nM.
With SPYNFFKRI the Kd (HLA-B*08:01; [15]) was 422 nM.
With SSMRKTDWL the Kd (HLA-B*08:01; [12]) was 240 nM.
TSKKRSWPL was tested, and the Kd (HLA-B*08:01; [13]) was 5.82 nM.
With TVTGGIFLFL the Kd (HLA-A*68:02; [13]) was 53.6 nM.
With TWLPVLLGSL the Kd (HLA-B*08:01; source organism: Dengue virus 1 Singapore/S275/1990) was 9430 nM.
Work on TYGLNTFTNM yielded a Kd (HLA-A*23:01; [13]) of 4920 nM.
VTLITGNMSF was tested, and the Kd (HLA-A*24:02; [13]) was 11500 nM.
In the case of VTNLISETLK, the Kd (HLA-A*33:01) is reported as ≥ 34200 nM, the Kd (HLA-A*31:01) is reported as 3270 nM and the Kd (HLA-A*02:01 [3]; [15]) is reported as ≥ 69400 nM. For the same sequence, the Kd (HLA-A*02:03; [15]) was ≥ 70400 nM, the Kd (HLA-B*54:01) was ≥ 69900 nM and the Kd (HLA-A*02:02; [15]) was ≥ 70000 nM. The Kd (HLA-A*03:01 [4]) was 409 nM, the Kd (HLA-A*11:01) was 8.47 nM and the Kd (HLA-A*68:02; [15]) was ≥ 34900 nM. For the same sequence, the Kd (HLA-B*35:01) was ≥ 69900 nM, the Kd (HLA-B*07:02) was ≥ 69600 nM and the Kd (HLA-A*68:01) was 94.4 nM. The Kd (HLA-B*53:01) was ≥ 69900 nM, the Kd (HLA-B*51:01 [1]; [15]) was ≥ 69600 nM and the Kd (HLA-A*02:06; [15]) was 17300 nM.
With WLVLRINKAL the Kd (HLA-A*68:02; source organism: Homo sapiens) was 4450 nM.
WTLYAVATTI showed a Kd (HLA-A*68:02; [9]) of 10 nM.
With YILGFAIPI the Kd (HLA-A*02:01 [5]) was 0.3 nM, the Kd (HLA-A*03:01 [6]) was ≥ 20000 nM and the Kd (HLA-B*57:01) was ≥ 20000 nM. For the same sequence, the Kd (HLA-B*51:01 [7]) was ≥ 20000 nM, the Kd (HLA-B*27:03) was ≥ 20000 nM and the Kd (HLA-B*18:01) was ≥ 20000 nM. The Kd (HLA-A*26:01 [8]) was ≥ 20000 nM.
YLLPSRGPKL showed a Kd (HLA-A*02:01 [3]; source organism: Hepatitis C virus subtype 2b) of 646 nM.
YLSTERDHV gave a Kd (HLA-A*02:01 [3]; source organism: Variola virus) of 100 nM.
